Measurements as given in publication PMC3763551, “The tRNA recognition mechanism of the minimalist SPOUT methyltransferase, TrmL” (Nucleic Acids Research, 2013).

How the values were obtained:
[1] = target: T1, EcTrmL (Escherichia coli, UniProt P0AGJ7, K42E); test: isothermal titration calorimetry, one-site model; type: binding
T1 construct: gene trmL

[2] = target: T2, EcTrmL (Escherichia coli, UniProt P0AGJ7, R59E); test: isothermal titration calorimetry, one-site model; type: binding
T2 construct: gene trmL

[3] = target: T3, EcTrmL (Escherichia coli, UniProt P0AGJ7, R46E); test: isothermal titration calorimetry, one-site model; type: binding
T3 construct: gene trmL

[4] = target: T4, EcTrmL (Escherichia coli, UniProt P0AGJ7, R129E); test: isothermal titration calorimetry, one-site model; type: binding
T4 construct: gene trmL

[5] = target: T5, EcTrmL (Escherichia coli, UniProt P0AGJ7, K81E); test: isothermal titration calorimetry, one-site model; type: binding
T5 construct: gene trmL

[6] = target: T6, EcTrmL (Escherichia coli, UniProt P0AGJ7, R104E); test: isothermal titration calorimetry, one-site model; type: binding
T6 construct: gene trmL

[7] = target: T7, EcTrmL (Escherichia coli, UniProt P0AGJ7, R43E); test: isothermal titration calorimetry, one-site model; type: binding
T7 construct: gene trmL

[8] = target: T8, EcTrmL (Escherichia coli, UniProt P0AGJ7, R20E); test: isothermal titration calorimetry, one-site model; type: binding
T8 construct: gene trmL

[9] = target: T9, EcTrmL (Escherichia coli, UniProt P0AGJ7, R45E); test: isothermal titration calorimetry, one-site model; type: binding
T9 construct: gene trmL

[10] = target: the molecule itself; test: SEC; analytical gel filtration, Superdex 75 (10/30), 20 mM Tris-HCl pH 7.5, 100 mM NaCl, 5 mM MgCl2, 5 mM beta-Me, 300 ul injected, 0.5 ml/min, against standard proteins
[11] = target: the molecule itself; test: not stated; oligomeric state of the purified Glu single mutants in solution; the method is not named for this statement

Molecule | stoichiometry N [11] | further results
Nc1ncnc2c1ncn2[C@@H]1O[C@H](CSCC[C@H](N)C(=O)O)[C@@H](O)[C@H]1O [SAH, S-adenosyl-homocysteine] | – | Kd [1]: 20 µM; Kd [2]: 27 µM; Kd [3]: 29 µM; Kd [4]: 19 µM; Kd [5]: 30 µM; Kd [6]: 33 µM; Kd [7]: 39 µM; Kd [8]: 45 µM; Kd [9]: 29 µM
tRNA (Um34/Cm34) methyltransferase TrmL from E. coli, wild type (enzyme, UniProt P0AGJ7 1-157, looked up, TrmL, tRNA (Um34/Cm34) methyltransferase, E. coli; gene amplified from the genome of E. coli MT102; 157 amino acids as printed; also called EcTrmL; Yibk; source: E. coli BL21 (DE3), pET30b, purified (Ni-NTA, Superdex 75 gel filtration)) MLNIVLYEPEIPPNTGNIIRLCANTGFRLHIIEPMGFAWDDKRLRRAGLDYHEFTAVTRHHDYRAFLEAENPQRLFALTTKGTPAHSAVSYQDGDYLMFGPETRGLPASILDALPAEQKIRIPMVPDSRSMNLSNAVSVVVYEAWRQLGYPGAVLRD | – | stoichiometry N [10]: 2
EcTrmL-R74E (enzyme, E. coli, UniProt P0AGJ7 1-157, looked up, TrmL, E. coli, 157 amino acids, with R74E; source: E. coli BL21 (DE3), pET30b, purified (Ni-NTA, Superdex 75 gel filtration)) MLNIVLYEPEIPPNTGNIIRLCANTGFRLHIIEPMGFAWDDKRLRRAGLDYHEFTAVTRHHDYRAFLEAENPQELFALTTKGTPAHSAVSYQDGDYLMFGPETRGLPASILDALPAEQKIRIPMVPDSRSMNLSNAVSVVVYEAWRQLGYPGAVLRD | 2 | –
EcTrmL-R104E (enzyme, E. coli, UniProt P0AGJ7 1-157, looked up, TrmL, E. coli, 157 amino acids, with R104E; source: E. coli BL21 (DE3), pET30b, purified (Ni-NTA, Superdex 75 gel filtration)) MLNIVLYEPEIPPNTGNIIRLCANTGFRLHIIEPMGFAWDDKRLRRAGLDYHEFTAVTRHHDYRAFLEAENPQRLFALTTKGTPAHSAVSYQDGDYLMFGPETEGLPASILDALPAEQKIRIPMVPDSRSMNLSNAVSVVVYEAWRQLGYPGAVLRD | 2 | –
EcTrmL-R129E (enzyme, E. coli, UniProt P0AGJ7 1-157, looked up, TrmL, E. coli, 157 amino acids, with R129E; source: E. coli BL21 (DE3), pET30b, purified (Ni-NTA, Superdex 75 gel filtration)) MLNIVLYEPEIPPNTGNIIRLCANTGFRLHIIEPMGFAWDDKRLRRAGLDYHEFTAVTRHHDYRAFLEAENPQRLFALTTKGTPAHSAVSYQDGDYLMFGPETRGLPASILDALPAEQKIRIPMVPDSESMNLSNAVSVVVYEAWRQLGYPGAVLRD | 2 | –
EcTrmL-K42E (enzyme, E. coli, UniProt P0AGJ7 1-157, looked up, TrmL, E. coli, 157 amino acids, with K42E; source: E. coli BL21 (DE3), pET30b, purified (Ni-NTA, Superdex 75 gel filtration)) MLNIVLYEPEIPPNTGNIIRLCANTGFRLHIIEPMGFAWDDERLRRAGLDYHEFTAVTRHHDYRAFLEAENPQRLFALTTKGTPAHSAVSYQDGDYLMFGPETRGLPASILDALPAEQKIRIPMVPDSRSMNLSNAVSVVVYEAWRQLGYPGAVLRD | 2 | –
EcTrmL-K81E (enzyme, E. coli, UniProt P0AGJ7 1-157, looked up, TrmL, E. coli, 157 amino acids, with K81E; source: E. coli BL21 (DE3), pET30b, purified (Ni-NTA, Superdex 75 gel filtration)) MLNIVLYEPEIPPNTGNIIRLCANTGFRLHIIEPMGFAWDDKRLRRAGLDYHEFTAVTRHHDYRAFLEAENPQRLFALTTEGTPAHSAVSYQDGDYLMFGPETRGLPASILDALPAEQKIRIPMVPDSRSMNLSNAVSVVVYEAWRQLGYPGAVLRD | 2 | –
EcTrmL-R20E (enzyme, E. coli, UniProt P0AGJ7 1-157, looked up, TrmL, E. coli, 157 amino acids, with R20E; source: E. coli BL21 (DE3), pET30b, purified (Ni-NTA, Superdex 75 gel filtration)) MLNIVLYEPEIPPNTGNIIELCANTGFRLHIIEPMGFAWDDKRLRRAGLDYHEFTAVTRHHDYRAFLEAENPQRLFALTTKGTPAHSAVSYQDGDYLMFGPETRGLPASILDALPAEQKIRIPMVPDSRSMNLSNAVSVVVYEAWRQLGYPGAVLRD | 2 | –
EcTrmL-R28E (enzyme, E. coli, UniProt P0AGJ7 1-157, looked up, TrmL, E. coli, 157 amino acids, with R28E; source: E. coli BL21 (DE3), pET30b, purified (Ni-NTA, Superdex 75 gel filtration)) MLNIVLYEPEIPPNTGNIIRLCANTGFELHIIEPMGFAWDDKRLRRAGLDYHEFTAVTRHHDYRAFLEAENPQRLFALTTKGTPAHSAVSYQDGDYLMFGPETRGLPASILDALPAEQKIRIPMVPDSRSMNLSNAVSVVVYEAWRQLGYPGAVLRD | 2 | –
EcTrmL-R43E (enzyme, E. coli, UniProt P0AGJ7 1-157, looked up, TrmL, E. coli, 157 amino acids, with R43E; source: E. coli BL21 (DE3), pET30b, purified (Ni-NTA, Superdex 75 gel filtration)) MLNIVLYEPEIPPNTGNIIRLCANTGFRLHIIEPMGFAWDDKELRRAGLDYHEFTAVTRHHDYRAFLEAENPQRLFALTTKGTPAHSAVSYQDGDYLMFGPETRGLPASILDALPAEQKIRIPMVPDSRSMNLSNAVSVVVYEAWRQLGYPGAVLRD | 2 | –
EcTrmL-R45E (enzyme, E. coli, UniProt P0AGJ7 1-157, looked up, TrmL, E. coli, 157 amino acids, with R45E; source: E. coli BL21 (DE3), pET30b, purified (Ni-NTA, Superdex 75 gel filtration)) MLNIVLYEPEIPPNTGNIIRLCANTGFRLHIIEPMGFAWDDKRLERAGLDYHEFTAVTRHHDYRAFLEAENPQRLFALTTKGTPAHSAVSYQDGDYLMFGPETRGLPASILDALPAEQKIRIPMVPDSRSMNLSNAVSVVVYEAWRQLGYPGAVLRD | 2 | –
EcTrmL-R46E (enzyme, E. coli, UniProt P0AGJ7 1-157, looked up, TrmL, E. coli, 157 amino acids, with R46E; source: E. coli BL21 (DE3), pET30b, purified (Ni-NTA, Superdex 75 gel filtration)) MLNIVLYEPEIPPNTGNIIRLCANTGFRLHIIEPMGFAWDDKRLREAGLDYHEFTAVTRHHDYRAFLEAENPQRLFALTTKGTPAHSAVSYQDGDYLMFGPETRGLPASILDALPAEQKIRIPMVPDSRSMNLSNAVSVVVYEAWRQLGYPGAVLRD | 2 | –
EcTrmL-R59E (enzyme, E. coli, UniProt P0AGJ7 1-157, looked up, TrmL, E. coli, 157 amino acids, with R59E; source: E. coli BL21 (DE3), pET30b, purified (Ni-NTA, Superdex 75 gel filtration)) MLNIVLYEPEIPPNTGNIIRLCANTGFRLHIIEPMGFAWDDKRLRRAGLDYHEFTAVTEHHDYRAFLEAENPQRLFALTTKGTPAHSAVSYQDGDYLMFGPETRGLPASILDALPAEQKIRIPMVPDSRSMNLSNAVSVVVYEAWRQLGYPGAVLRD | 2 | –
EcTrmL-R64E (enzyme, E. coli, UniProt P0AGJ7 1-157, looked up, TrmL, E. coli, 157 amino acids, with R64E; source: E. coli BL21 (DE3), pET30b, purified (Ni-NTA, Superdex 75 gel filtration)) MLNIVLYEPEIPPNTGNIIRLCANTGFRLHIIEPMGFAWDDKRLRRAGLDYHEFTAVTRHHDYEAFLEAENPQRLFALTTKGTPAHSAVSYQDGDYLMFGPETRGLPASILDALPAEQKIRIPMVPDSRSMNLSNAVSVVVYEAWRQLGYPGAVLRD | 2 | –
